Molecular target: FOXM1 (Forkhead box M1) (UniProt Q08050)
Assay: GST pull-down with purified proteins
Conditions: reference: GST-ZNF148 WT without ERK; sites S306

binding against the reference: stronger
Substance: ZNF148 (ZBP‐89) (from UniProt Q9UQR1) GST-ZNF148 WT pre-incubated with active ERK

Reference: article PMC7156819
